Patent publication US20200339680A1 (Alector, published 2020)

B1: TM-31 (antibody, V domains shown)
VH: QVQLQQSGAELAKPGASVKVSCKASGYTFISYWMNWVKQRPGQGLEWIGYINPTSGYTRYNQKFKDKATLTADKSSSTAYMQLSSLTYEDSAVYYCARSPPTVVLIGYFDYWGQGTTLTVSS
VL: DIKMTQSPSSMYASLGERVTFTCKASQDINSYLSWFQQKPGKSPKTLIYRGNGLVDGVPSRFSGSGSGQDYSLTISSLEYEDMGIYYCLQYDEFPFTFASGTKLEIK
notes: mouse IgG (hybridoma)
B2: TM-2 (antibody, V domains shown)
VH: HIQLVQSGPELKKPGETVKISCKASGYTFTEYPMHWVKQAPGKGFRWMGMIYTNTGEPTYAAEFKGRFAFSLETSASTGYLQINNLKNEDSATYFCVTAGYWGQGTLVTVSA
VL: QIVLTQSPAILSASPGEKVTMTCRASSSVSYIHWFLQKPGSSPKPWIYATSNLASGVPFRFIGSGSGTSYSLTISGVEAEDSATYYCQQWSSNPSTFGAGTKLELK
B3: TM-24 (antibody, V domains shown)
VH: QVQLKQSGPGQVQPSQSLSITCTVSGFSLSDYGVHWVRQSPGKGLEWLGVIWNNGNTDYNAAFISRLSINKDNSKSQVFFKMTSLQADDTAIYYCVRSLRPLHFDYWGQGTTVTVSS
VL: DIVMTQSPSSLTMSVGQKVTMNCKSSQSLLNSNNQQNYLAWYQQKPGQSPKLLVYFASIRESGVPDRFIGSGSGTDFTLTINSVQAEDLADYFCQQHYSTPFTFGSGTKLEIR
notes: mouse IgG (hybridoma)
B4: TM-7 (antibody, V domains shown)
VH: EVQLQQSGPVLVKPGPPVKISCKASGFTFTDYYIHWVKLSHGKSLEWIGLVYPYNGDTDYNQKFKGKATLTVDTSSSTAYMELNSLTSEDSAVYYCARTYYANSPDYWGQGTTVTVSS
VL: DIVMTQSPSSLSVSAGEKVTMSCKSSQSLLNSGNQRNYLAWYQQKPGQPPKLLIYGASTRESGVPDRFTGSGSGTDFTLTISNVQAEDLAVYYCQNDHSYPLTFGAGTKLELK
B5: TM-6 (antibody, V domains shown)
VH: QVQLQQSGAELVKPGASVKLSCKASGYTFTEYTIHWVKQRSGQGLEWIGWFYPGSTYIDYNEKFKDKATLTADKSSSTVYLELSRLTSEDSAVYFCARHEEDYSNWFPFWGQGTLVTVSA
VL: DIQMSQSSSYLSVSLGGRVTITCKASDHINNWLAWYQQKPGNAPRLLISGATSLETGVPSRFSGSGSGKDYTLSITSLQTEDVATYYCQQYWSSPYTFGGGTKLEIK
notes: mouse IgG (hybridoma)
B6: TM-1 (antibody, V domains shown)
VH: QVQLQQSGAELVRPGTSVKVSCKASGYAFTNYLIEWVKQRPGQGLEWIGVINPGSGGTKYNEKLKGKATLTADKSSSTAYMQLSSLTSVDSAVYFCARRGYTIYDFYAMDYWGQGTSVTVSS
VL: DVLMTQTPLSLPVSLGDHASISCRSSQSIVYNNGNTYLEWYLQKPGQSPKLLIYKVSNRFSGVPDRFSGSGSGTDFTLKISRVEAEDLGVYYCFQVSHVPFTFGSGTKLEIK
B7: TM-30 (antibody, V domains shown)
VH: QVQLQQSGPELVKPGASVKLSCKASDNTFTNYDVNWVRQRPGQGLEWIGWIYPRDGTTIYNEKFKGRATLTVDTSSSTAYMELHSLTSEDSAVFFCARTLPQAMDYWGQGTSVTVSS
VL: DVLMTQSPLSLPVSLGDQVSISCRSSQTIVHRNGNTYLEWYLQKPGQSPKLLIYKVSNRFSGVPDRFSGSGSGTDFTLKISRVEAEDLGVYYCFQGSHLPWTFGGGTKLEIK
notes: mouse IgG (hybridoma)
B8: TM-32 (antibody, V domains shown)
VH: EVQLQQSGAELVRPGASVRLSCIASGFNIKDYYMYWVKQRPEQGLEWIGRIDPEDGDTEYVPKFQGKATMTADTSSNTAYLQLSSLTSEDIGVYYCTTRTWDLYYAVDNWGQGTSVTVSS
VL: DVLMTQTPLSLPVSLGDQASISCRSSQNIVHSNGNTYLEWYLQKPGQSPKLLIDKVSNRFSGVPDRFSGSGSGTDFTLKISRVEAEDLGIYYCFQGSHVPFTFGSGTKLEIK
B9: TM-5 (antibody, V domains shown)
VH: QVQLQQSGTELARPGASVKVSCKASGYIFTTYGITWVKQRGGQGLEWIGEIYPRSDNTYYNEKFKDKATLTADKSSSTAYMELRSLTSEDSAVYFCARSKGSGTGDYWGQGTTVTVSS
VL: DIQMTQSPASLSASVGETVTITCRASENIYIYLAWYQQKQGKTPQLLVYNGKMLAENVPSRFSGSGSGTQFSLKINSLQPEDFGSYYCQHHYGSPPAFGAGTKLELK
B10: TM-39 (antibody, V domains shown)
VH: HVQRQQSGTELAKPGASVKLSCKTSGYTFTDYWMHWIKQRPGQGLEWIGFINPSSGYTKYNQNFKDKATLTADKSSSTAYMQLSSLTYEDSAVFYCAREAGSISDWYFDVWGTGTTVTVSS
VL: DIVMTQAAPSIPVTPGESVSISCRSSKTLLNSNGNTYLYWFLQRPGQPPQLLIYRMSNLASGVPDRFSGSGSGTAFTLRISRVEAEDVGVYYCMQHLDYPYTFGGGTQLEIK
B11: TM-3 (antibody, V domains shown)
VH: QVTLKESGPGIVQPSQTLSLTCSFSGFSLNTLGRGVGWIRQPSGKGLEWLAKIWWNDDKFYYPALKSRLTISKDTSKNQIFLKIANVDTADSATYYCARIAGGTGAAYWGQGTTLTVSS
VL: DIVMTQAAFSNPVTLGTSASISCRSSKSLLHSNGITYLYWYLQKPGQSPQLLISQMSSLASGVPDRFSSGGSGTDFTLRISRVEAEDVGVFYCAQNLELPWTFGGGTKLELK

Columns and labels:
human TMEM106B [1] = molecular target: T1, human TMEM106B (human, UniProt Q9NUM4 2-274); experiment: FACS HeLa
T1 construct: full-length, transiently expressed on HEK293 cells, or natively expressed on HeLa, U251 and A549 cells (the cell is named under assay); also the source of the Pepscan peptides; also called huTMEM106B; huTMEM
Procedure: (§1) All cells were cultured in either T75 or T150 flasks. […] The enzyme was quenched by addition of fresh media, and the cells were then distributed into 96-well plates for FACS analysis.
(§2) FACS analysis was performed as follows. Each cell type was aliquoted in 96-well round bottom plates (2×10^5 cells per well), washed once with FACS buffer (PBS+2% FBS+1 mM EDTA), and incubated with 50 μL of hybridoma supernatant or purified antibody (10 μg/ml in FACS buffer) on ice for 1 hour. […] Following this secondary incubation, the cells were again washed 2× with ice-cold FACS buffer and resuspended in a final volume of 50 μL of FACS buffer+0.25 μl/well propidium iodide (Fisher Scientific #4BDB556463). Analysis was performed on a FACSCanto system (BD Biosciences) or iQue (Intellicyt), with sort gates drawn to exclude dead (i.e., propidium iodide positive) cells.

human TMEM106B [2] = molecular target: T1, human TMEM106B; experiment: FACS U251
Procedure: as §1, §2

mouse TMEM106B = molecular target: T2, mouse TMEM106B (mouse, UniProt Q80X71 2-275); experiment: FACS Neuro2a;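 also: flow cytometry of antibody binding to cells: hybridoma supernatant or purified antibody at 10 µg/ml, 1 h on ice, secondary detection, propidium iodide–positive dead cells gated out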
T2 construct: transiently expressed on HEK293 cells, or native on mouse Neuro2a cells; also called moTMEM106B; murine TMEM106B

human TMEM106B [3] = molecular target: T1, human TMEM106B; experiment: FACS A549 1 ug/ml
Procedure: (§3) Purified anti-TMEM106B antibodies were evaluated for their binding affinity to various TMEM106B-expressing cell lines including HEK293 transiently transfected with human/cyno/mouse TMEM106B, as well as HeLa cells and A549 cells. Antibodies tested for this experiment were mouse IgGs purified from hybridoma supernatant. Affinity binding to cells was determined as follows. Briefly, 1×10\hat{ }5 cells were aliquoted per well in 96-well round bottom plates and incubated with 50 μL of purified anti-TMEM106B antibody at various concentrations (10× dilutions starting at 10 μg/ml) in FACS buffer (PBS+2% FBS+1 mM EDTA). […] Sorting was performed on a iQue (Intellicyt), with sort gates drawn to exclude dead (propidium iodide+) cells. Binding data was analyzed using median fluorescent intensity (MFI) and graphed in Prism. Values presented are MFI.

human TMEM106B [4] = molecular target: T1, human TMEM106B; experiment: FACS A549 10 ug/ml
Procedure: as §3

human TMEM106B [5] = molecular target: T1, human TMEM106B; experiment: FACS HEK+huTMEM 10 ug/ml;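 also: flow cytometric binding of purified mouse IgG antibodies to HEK293 cells transiently expressing human TMEM106B, read as median fluorescence intensity on live cells with propidium iodide-positive cells excluded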
human TMEM106B [6] = molecular target: T1, human TMEM106B; experiment: FACS HEK+huTMEM 0.1 ug/ml;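 also: flow cytometry binding of purified mouse IgG antibodies to HEK293 cells transiently expressing TMEM106B, read as median fluorescence intensity on live cells (propidium iodide negative gating)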
Procedure: as §3

human TMEM106B [7] = molecular target: T1, human TMEM106B; experiment: FACS HEK+huTMEM 1.0 ug/ml;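 also: binding of purified mouse IgG antibodies to HEK293 cells transiently expressing human TMEM106B, read by flow cytometry as median fluorescence intensity of live, propidium iodide-negative cells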
Procedure: as §3

human TMEM106B [8] = molecular target: T1, human TMEM106B; experiment: FACS HEK+huTMEM 0.1 ug/ml (2nd column so headed);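 also: flow cytometry binding of purified anti-TMEM106B mouse IgG to HEK293 cells transiently transfected with TMEM106B, read as median fluorescence intensity on live (propidium iodide-negative) cells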
Procedure: as §3

human TMEM106B [9] = molecular target: T1, human TMEM106B; experiment: FACS A549;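 also: flow cytometry of cells incubated on ice for 1 h with hybridoma supernatant or purified antibody at 10 µg/mL, dead propidium iodide-positive cells gated out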
Procedure: as §1, §2

Row | Binder | MFI (human TMEM106B [1]) | MFI (human TMEM106B [2]) | MFI (mouse TMEM106B) | MFI (human TMEM106B [3]) | MFI (human TMEM106B [4]) | MFI (human TMEM106B [5]) | MFI (human TMEM106B [6]) | MFI (human TMEM106B [7]) | MFI (human TMEM106B [8]) | MFI (human TMEM106B [9])
1 | B1 | 799 MFI | 352 MFI | 325 MFI | 403 MFI | 527 MFI | 6060 MFI | 1390 MFI | 3680 MFI | 596 MFI | 
2 | B2 | 2530 MFI | 1410 MFI | 2900 MFI | 1090 MFI | 3360 MFI | 55500 MFI | 4730 MFI | 29300 MFI | 1440 MFI | 1890 MFI
3 | B3 |  |  |  | 2880 MFI | 4480 MFI | 66300 MFI | 22000 MFI | 64500 MFI | 3620 MFI | 
4 | B4 | 1070 MFI | 442 MFI | 1200 MFI | 883 MFI | 1810 MFI | 40800 MFI | 9870 MFI | 40000 MFI | 1670 MFI | 647 MFI
5 | B5 | 520 MFI | 304 MFI | 371 MFI | 418 MFI | 544 MFI | 581 MFI | 327 MFI | 393 MFI | 294 MFI | 1100 MFI
6 | B6 | 253 MFI | 244 MFI | 253 MFI | 364 MFI | 409 MFI | 2380 MFI | 1330 MFI | 2010 MFI | 655 MFI | 1460 MFI
7 | B7 |  |  |  | 3030 MFI | 4040 MFI | 61500 MFI | 18400 MFI | 63500 MFI | 3070 MFI | 
8 | B8 |  |  |  | 3930 MFI | 6100 MFI | 61100 MFI | 20300 MFI | 63300 MFI | 4100 MFI | 
9 | B9 | 1740 MFI | 866 MFI | 1610 MFI | 1970 MFI | 4800 MFI | 59300 MFI | 10800 MFI | 64500 MFI | 2180 MFI | 1170 MFI
10 | B10 |  |  |  | 3610 MFI | 5330 MFI | 51900 MFI | 19200 MFI | 55600 MFI | 3850 MFI | 
11 | B11 | 2690 MFI | 1080 MFI | 1980 MFI | 4840 MFI | 7670 MFI | 82300 MFI | 48700 MFI | 89100 MFI | 7700 MFI | 1800 MFI
